Reference: patent US20230145766A1

Molecular target: IL-2 receptor on the surface of human lymphocytes (T cells, NK cells, Treg cells from PBMC) (human)
Test: cell-based or functional assay

## human wild-type IL-2 (rhIL-2, R&D systems, Catalog No. 202-IL) (from UniProt P60568 21-153) (ligand)
  CD25-pSTAT5 EC50 (CD8+ CD25- T cells): 0.47 nM
  EC50 of pSTAT5, CD4+CD25- T cells: 0.102 nM
  EC50 of pSTAT5, CD8+ T cells: 1.69 nM
  EC50 of pSTAT5, NK cells: 0.0242 nM
  EC50 of pSTAT5, Treg cells: 0.388 pM
